Source: US20200024322A1 (Eli Lilly, published 2020)
Substitutions are numbered along the chain they refer to. Numbered stars: 1 amine (or outer) side, 2 acyl side, 3 side chain; on linkers, the order of the positions; unused ones are H or OH. Square brackets hold non-standard residues; d marks the D form. Side chains are listed from the residue outwards. Ends that are not written are not given here. * marks the point of attachment. C20 diacid = O=C(O)CCCCCCCCCCCCCCCCCCC(=O)*; C18 diacid = O=C(O)CCCCCCCCCCCCCCCCC(=O)*; γGlu = O=C(O)[C@H](CCC(=O)[*:2])N[*:1]; AEEA = NCCOCCOCC(=O)O; Aib = CC(C)(N)C(=O)O

T1: human GIP receptor (human, UniProt P48546 22-466)
T1 construct: whole, on cells; also called hGIPR; hGIP-R
T1 sequence (looked up): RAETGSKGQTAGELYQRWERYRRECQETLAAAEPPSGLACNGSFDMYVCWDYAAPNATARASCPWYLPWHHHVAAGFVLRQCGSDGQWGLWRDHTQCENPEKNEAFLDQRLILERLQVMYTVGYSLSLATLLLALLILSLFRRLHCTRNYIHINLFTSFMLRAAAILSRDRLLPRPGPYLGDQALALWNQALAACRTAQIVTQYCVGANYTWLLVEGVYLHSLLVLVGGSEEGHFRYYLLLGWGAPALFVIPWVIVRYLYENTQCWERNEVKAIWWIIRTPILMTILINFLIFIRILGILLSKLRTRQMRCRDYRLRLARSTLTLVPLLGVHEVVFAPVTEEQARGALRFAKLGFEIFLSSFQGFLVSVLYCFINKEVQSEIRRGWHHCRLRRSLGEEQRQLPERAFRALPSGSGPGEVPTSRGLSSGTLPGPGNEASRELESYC

B1: Example 354 (peptide)
peptide: XXEGTFTSDYSIXLDXKAQXEFIXYLIAGGPSSGAPPPS
modifications: D-Tyr1; Aib2; αMeL13; Orn16; K17((2-[2-(2-Amino-ethoxy)-ethoxy]-acetyl)2-(γ-Glu)-CO-(CH2)18-CO2H); Aib20; D-Glu24; C-terminal NH2
B2: Example 357 (peptide)
peptide: B1 peptide with E21A, A28E
modifications: D-Tyr1; Aib2; αMeL13; Orn16; K17((2-[2-(2-Amino-ethoxy)-ethoxy]-acetyl)2-(γ-Glu)-CO-(CH2)18-CO2H); Aib20; D-Glu24; C-terminal NH2
B3: Example 342 (peptide)
peptide: B1 peptide with X16E, X24E
modifications: D-Tyr1; Aib2; αMeL13; K17((2-[2-(2-Amino-ethoxy)-ethoxy]-acetyl)2-(γ-Glu)-CO-(CH2)18-CO2H); Aib20; C-terminal NH2
B4: Example 356 (peptide)
peptide: B1 peptide with X16K, E21A, A28E
modifications: D-Tyr1; Aib2; αMeL13; K17((2-[2-(2-Amino-ethoxy)-ethoxy]-acetyl)2-(γ-Glu)-CO-(CH2)18-CO2H); Aib20; D-Glu24; C-terminal NH2
B5: Example 344 (peptide)
peptide: B1 peptide with X1Y, X16E, E21D, X24E
modifications: Aib2; αMeL13; K17((2-[2-(2-Amino-ethoxy)-ethoxy]-acetyl)2-(γ-Glu)-CO-(CH2)18-CO2H); Aib20; C-terminal NH2
B6: Example 349 (peptide)
peptide: B1 peptide with X24E
modifications: D-Tyr1; Aib2; αMeL13; Orn16; K17((2-[2-(2-Amino-ethoxy)-ethoxy]-acetyl)2-(γ-Glu)-CO-(CH2)18-CO2H); Aib20; C-terminal NH2
B7: Example 304 (peptide)
peptide: YXEGTFTSDYSIXLDKKAQXEFIEYLIEGGPSSG
modifications: Aib2; αMeL13; K17((2-[2-(2-Amino-ethoxy)-ethoxy]-acetyl)2-(γ-Glu)-CO-(CH2)16-CO2H); Aib20; C-terminal NH2
B8: Example 306 (peptide)
peptide: B7 peptide with E28A
modifications: Aib2; αMeL13; K17((2-[2-(2-Amino-ethoxy)-ethoxy]-acetyl)2-(γ-Glu)-CO-(CH2)16-CO2H); Aib20; C-terminal NH2
B9: Example 296 (peptide)
peptide: Y[Aib]EGTFTSDYSILLDKK([AEEA-AEEA-γGlu-C18 diacid])AQKAFIEYLIEGGPSSG-NH2
modifications: N-terminus assumed
SMILES: CC[C@H](C)[C@H](NC(=O)[C@H](CC(C)C)NC(=O)[C@H](Cc1ccc(O)cc1)NC(=O)[C@H](CCC(=O)O)NC(=O)[C@@H](NC(=O)[C@H](Cc1ccccc1)NC(=O)[C@H](C)NC(=O)[C@H](CCCCN)NC(=O)[C@H](CCC(N)=O)NC(=O)[C@H](C)NC(=O)[C@H](CCCCNC(=O)COCCOCCNC(=O)COCCOCCNC(=O)CC[C@H](NC(=O)CCCCCCCCCCCCCCCCC(=O)O)C(=O)O)NC(=O)[C@H](CCCCN)NC(=O)[C@H](CC(=O)O)NC(=O)[C@H](CC(C)C)NC(=O)[C@H](CC(C)C)NC(=O)[C@@H](NC(=O)[C@H](CO)NC(=O)[C@H](Cc1ccc(O)cc1)NC(=O)[C@H](CC(=O)O)NC(=O)[C@H](CO)NC(=O)[C@@H](NC(=O)[C@H](Cc1ccccc1)NC(=O)[C@@H](NC(=O)CNC(=O)[C@H](CCC(=O)O)NC(=O)C(C)(C)NC(=O)[C@@H](N)Cc1ccc(O)cc1)[C@@H](C)O)[C@@H](C)O)[C@@H](C)CC)[C@@H](C)CC)C(=O)N[C@@H](CCC(=O)O)C(=O)NCC(=O)NCC(=O)N1CCC[C@H]1C(=O)N[C@@H](CO)C(=O)N[C@@H](CO)C(=O)NCC(N)=O
B10: Example 319 (peptide)
peptide: Y[Aib]EGTFTSDYSILLDKK([AEEA-AEEA-γGlu-C20 diacid])AQ[Aib]EFIEYLIAGGPSSGAPPPS-NH2
modifications: N-terminus assumed
SMILES: CC[C@H](C)[C@H](NC(=O)[C@H](CC(C)C)NC(=O)[C@H](Cc1ccc(O)cc1)NC(=O)[C@H](CCC(=O)O)NC(=O)[C@@H](NC(=O)[C@H](Cc1ccccc1)NC(=O)[C@H](CCC(=O)O)NC(=O)C(C)(C)NC(=O)[C@H](CCC(N)=O)NC(=O)[C@H](C)NC(=O)[C@H](CCCCNC(=O)COCCOCCNC(=O)COCCOCCNC(=O)CC[C@H](NC(=O)CCCCCCCCCCCCCCCCCCC(=O)O)C(=O)O)NC(=O)[C@H](CCCCN)NC(=O)[C@H](CC(=O)O)NC(=O)[C@H](CC(C)C)NC(=O)[C@H](CC(C)C)NC(=O)[C@@H](NC(=O)[C@H](CO)NC(=O)[C@H](Cc1ccc(O)cc1)NC(=O)[C@H](CC(=O)O)NC(=O)[C@H](CO)NC(=O)[C@@H](NC(=O)[C@H](Cc1ccccc1)NC(=O)[C@@H](NC(=O)CNC(=O)[C@H](CCC(=O)O)NC(=O)C(C)(C)NC(=O)[C@@H](N)Cc1ccc(O)cc1)[C@@H](C)O)[C@@H](C)O)[C@@H](C)CC)[C@@H](C)CC)C(=O)N[C@@H](C)C(=O)NCC(=O)NCC(=O)N1CCC[C@H]1C(=O)N[C@@H](CO)C(=O)N[C@@H](CO)C(=O)NCC(=O)N[C@@H](C)C(=O)N1CCC[C@H]1C(=O)N1CCC[C@H]1C(=O)N1CCC[C@H]1C(=O)N[C@@H](CO)C(N)=O
B11: Example 297 (peptide)
peptide: Y[Aib]EGTFTSDYSILLDKK([AEEA-AEEA-γGlu-C18 diacid])AQ[Aib]EFIEYLIAGG-NH2
modifications: N-terminus assumed
SMILES: CC[C@H](C)[C@H](NC(=O)[C@H](CC(C)C)NC(=O)[C@H](Cc1ccc(O)cc1)NC(=O)[C@H](CCC(=O)O)NC(=O)[C@@H](NC(=O)[C@H](Cc1ccccc1)NC(=O)[C@H](CCC(=O)O)NC(=O)C(C)(C)NC(=O)[C@H](CCC(N)=O)NC(=O)[C@H](C)NC(=O)[C@H](CCCCNC(=O)COCCOCCNC(=O)COCCOCCNC(=O)CC[C@H](NC(=O)CCCCCCCCCCCCCCCCC(=O)O)C(=O)O)NC(=O)[C@H](CCCCN)NC(=O)[C@H](CC(=O)O)NC(=O)[C@H](CC(C)C)NC(=O)[C@H](CC(C)C)NC(=O)[C@@H](NC(=O)[C@H](CO)NC(=O)[C@H](Cc1ccc(O)cc1)NC(=O)[C@H](CC(=O)O)NC(=O)[C@H](CO)NC(=O)[C@@H](NC(=O)[C@H](Cc1ccccc1)NC(=O)[C@@H](NC(=O)CNC(=O)[C@H](CCC(=O)O)NC(=O)C(C)(C)NC(=O)[C@@H](N)Cc1ccc(O)cc1)[C@@H](C)O)[C@@H](C)O)[C@@H](C)CC)[C@@H](C)CC)C(=O)N[C@@H](C)C(=O)NCC(=O)NCC(N)=O

These binders were tested against T1, human GIP receptor (assay: [125I]-GIP competition SPA, hGIPR membranes).
Procedure: The binding buffer contains 25 mM HEPES, pH 7.4, 2.5 mM CaCl₂, 1 mM MgCl₂, 0.1% (w/v) bacitracin, 0.003% (w/v) TWEEN®-20, and Roche Complete™ Protease Inhibitors without EDTA. […] Plates are sealed and mixed on a plate shaker (setting 6) for 1 minute and read with a PerkinElmer Trilux MicroBeta® scintillation counter after 2.5 to 12 hours of incubation/settling time at room temperature.
(§1) Data are analyzed using four-parameter (curve maximum, curve minimum, IC₅₀, Hill slope) nonlinear regression routines (Genedata Screener, version 12.0.4, Genedata AG, Basal, Switzerland). […] Values for Kᵢ are reported as the geometric mean, with error expressed as the standard error of the mean (SEM) and n is equal to the number of independent replicates (determined in assays performed on different days). Geometric Means are calculated as follows: […]
Work on B1 yielded a Ki of 0.175 nM.
B2 gave a Ki of 0.316 nM.
B3 showed a Ki of 0.129 nM.
Work on B4 yielded a Ki of 0.35 nM.
In the case of B5, the Ki is reported as 0.0507 nM.
B6 was tested, and the Ki was 0.08 nM.
In the case of B7, the Ki is reported as 0.0499 nM.
Work on B8 yielded a Ki of 0.0349 nM.
With B9 the Ki was 0.444 nM.
B10 showed a Ki of 0.0349 nM.
B11 gave a Ki of 0.0958 nM.

What follows are binders tested against T2, human GLP-1 receptor (human, UniProt P43220 24-463) (assay: [125I]-GLP-1 competition SPA, hGLP-1R membranes).
T2 construct: whole, on cells; also called hGLP-1R; hGLP1R
Procedure: The binding buffer contains 25 mM HEPES, pH 7.4, 2.5 mM CaCl₂, 1 mM MgCl₂, 0.1% (w/v) bacitracin, 0.003% (w/v) TWEEN®-20, and Roche Complete™ Protease Inhibitors without EDTA.
as §1
Work on B1 yielded a Ki of 7.85 nM.
B2 showed a Ki of 7.02 nM.
Binder B3 has a Ki of 15.4 nM.
With B4 the Ki was 10.3 nM.
In the case of B5, the Ki is reported as 14.8 nM.
In the case of B6, the Ki is reported as 1.72 nM.
For B7, the Ki was 4.44 nM.
B8 showed a Ki of 2.86 nM.
Work on B9 yielded a Ki of 3.33 nM.
With B10 the Ki was 3.61 nM.
B11 gave a Ki of 2.98 nM.
